Data taken from US20210388110A1 (published 2021).

Legend:
soluble human CD3ε chain = target: T1, soluble human CD3ε chain (human, UniProt P07766 23-126, limits assumed); assay: SPR (Biacore)
T1 construct: the text says soluble human CD3ε chain; also called human CD3 epsilon chain

soluble human GPC3 = target: T2, soluble human GPC3 (human, UniProt P51654 25-563, limits assumed); assay: SPR (Biacore), soluble human GPC3
T2 construct: soluble human GPC3 as analyte; also called glypican 3
T2 sequence (P51654 other isoform, or with tags, fused parts or gaps limits assumed, form in doubt): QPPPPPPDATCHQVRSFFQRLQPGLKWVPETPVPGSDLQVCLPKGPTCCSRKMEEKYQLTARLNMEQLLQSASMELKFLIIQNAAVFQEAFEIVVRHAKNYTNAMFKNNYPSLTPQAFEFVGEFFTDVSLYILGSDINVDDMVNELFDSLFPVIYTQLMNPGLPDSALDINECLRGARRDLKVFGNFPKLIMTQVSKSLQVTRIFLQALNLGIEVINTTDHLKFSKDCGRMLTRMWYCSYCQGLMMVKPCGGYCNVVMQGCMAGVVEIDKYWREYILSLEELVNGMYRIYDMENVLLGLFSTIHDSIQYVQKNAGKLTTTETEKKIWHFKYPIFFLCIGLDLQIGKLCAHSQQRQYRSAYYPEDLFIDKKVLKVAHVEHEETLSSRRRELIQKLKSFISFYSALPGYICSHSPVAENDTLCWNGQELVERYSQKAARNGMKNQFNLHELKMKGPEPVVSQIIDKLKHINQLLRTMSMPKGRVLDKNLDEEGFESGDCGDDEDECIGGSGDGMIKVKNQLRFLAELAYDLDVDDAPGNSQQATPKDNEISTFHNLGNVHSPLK

T1 sequence (P07766 23-126 limits assumed): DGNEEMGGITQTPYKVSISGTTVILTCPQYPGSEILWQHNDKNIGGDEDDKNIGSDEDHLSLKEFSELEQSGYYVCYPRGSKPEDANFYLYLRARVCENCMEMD

Row | Kd (soluble human CD3ε chain) [nM] | Kd (soluble human GPC3) [nM] | Binder
1 | 36 | – | TR01H040-E22Hh/none-Hi-Kn010G3/L0000-k0 (antibody, human IgG1, kappa, L234A L235A, N297A, single-arm) heavy: QVQLVESGGGLVQPGRSLRLSCAASGFTFSNAWMHWVRQAPGKGLEWVAQIKDKSQNYATYYAESVKGRFTISRADSKNSIYLQMNSLKTEDTAVYYCRYVHYSASYGVDAWGQGTTVTVSSASTKGPSVFPLAPSSKSTSGGTAALGCLVKDYFPEPVTVSWNSGALTSGVHTFPAVLQSSGLYSLSSVVTVPSSSLGTQTYICNVNHKPSNTKVDKKVEPKSCDKTHTCPPCPAPEAAGGPSVFLFPPKPKDTLMISRTPEVTCVVVDVSHEDPEVKFNWYVDGVEVHNAKTKPREEQYASTYRVVSVLTVLHQDWLNGKEYKCKVSNKALPAPIEKTISKAKGQPREPQVYTLPPSRCELTKNQVSLSCAVKGFYPSDIAVEWESNGQPENNYKTTPPVLDSDGSFFLVSKLTVDKSRWQQGNVFSCSVMHEALHNHYTQKSLSLSPDYKDDDDK EPKSSDKTHTCPPCPAPELLGGPSVFLFPPKPKDTLMISRTPEVTCVVVDVSHEDPEVKFNWYVDGVEVHNAKTKPREEQYNSTYRVVSVLTVLHQDWLNGKEYKCKVSNKALPAPIEKTISKAKGQPREPQVCTLPPSRDELTKNQVSLWCLVKGFYPSDIAVEWESNGQPENNYKTTPPVLDSDGSFFLYSKLTVDKSRWQQGNVFSCSVMHEALHNRYTQKSLSLSP light: DIVMTQSPLSLPVTPGEPASISCRSSQSLVHSNRNTYLHWYQQKPGQAPRLLIYKVSNRFSGVPDRFSGSGSGTDFTLKISRVEAEDVGVYYCGQGTQVPYTFGQGTKLEIKRTVAAPSVFIFPPSDEQLKSGTASVVCLLNNFYPREAKVQWKVDNALQSGNSQESVTEQDSKDSTYSLSSTLTLSKADYEKHKVYACEVTHQGLSSPVTKSFNRGEC
2 | – | 2.16 | H0610-G1dh/none-Hi-Kn010G3/L0000vk1-k0 (antibody, human IgG1, kappa, single-arm (one Fab)) heavy: not shown EPKSSDKTHTCPPCPAPELLGGPSVFLFPPKPKDTLMISRTPEVTCVVVDVSHEDPEVKFNWYVDGVEVHNAKTKPREEQYNSTYRVVSVLTVLHQDWLNGKEYKCKVSNKALPAPIEKTISKAKGQPREPQVCTLPPSRDELTKNQVSLWCLVKGFYPSDIAVEWESNGQPENNYKTTPPVLDSDGSFFLYSKLTVDKSRWQQGNVFSCSVMHEALHNRYTQKSLSLSP light: DIQMTQSPSSLSASVGDRVTITCRSSQSLVHSNRNTYLHWYQQKPGKAPKLLIYKVSNRFSGVPSRFSGSGSGTDFTFTISSLQPEDIATYYCGQGTQVPYTFGQGTKVEIKRTVAAPSVFIFPPSDEQLKSGTASVVCLLNNFYPREAKVQWKVDNALQSGNSQESVTEQDSKDSTYSLSSTLTLSKADYEKHKVYACEVTHQGLSSPVTKSFNRGEC
3 | – | 1.15 | H0610-G1dh/none-Hi-Kn010G3/TR01L019-k0 (antibody, human IgG1, kappa, single-arm (one Fab)) heavy: not shown EPKSSDKTHTCPPCPAPELLGGPSVFLFPPKPKDTLMISRTPEVTCVVVDVSHEDPEVKFNWYVDGVEVHNAKTKPREEQYNSTYRVVSVLTVLHQDWLNGKEYKCKVSNKALPAPIEKTISKAKGQPREPQVCTLPPSRDELTKNQVSLWCLVKGFYPSDIAVEWESNGQPENNYKTTPPVLDSDGSFFLYSKLTVDKSRWQQGNVFSCSVMHEALHNRYTQKSLSLSP light: DIVMTQSPLSLPVTPGEPASISCQASESPVHSNRNTYLHWYLQKPGQSPQLLIYKVSNRFSGVPDRFSGSGSGTDFTLKISRVEAEDVGVYYCYQGTQVPYTFGQGTKLEIKRTVAAPSVFIFPPSDEQLKSGTASVVCLLNNFYPREAKVQWKVDNALQSGNSQESVTEQDSKDSTYSLSSTLTLSKADYEKHKVYACEVTHQGLSSPVTKSFNRGEC
4 | 22.3 | – | CE115HA251-E22Hh//-Hi-Kn010G3/L0000-k0 (antibody, human IgG1, kappa, L234A L235A, N297A, single-arm) heavy: QVQLVESGGGVVQPGRSLRLSCAASGFTFSNAWMHWVRQAPGKGLEWVAQIKAKSNNYATYYAESVKGRFTISRDDSKNSLYLQMNSLKTEDTAVYYCRYVHYYYYYGVDAWGQGTTVTVSSASTKGPSVFPLAPSSKSTSGGTAALGCLVKDYFPEPVTVSWNSGALTSGVHTFPAVLQSSGLYSLSSVVTVPSSSLGTQTYICNVNHKPSNTKVDKKVEPKSCDKTHTCPPCPAPEAAGGPSVFLFPPKPKDTLMISRTPEVTCVVVDVSHEDPEVKFNWYVDGVEVHNAKTKPREEQYASTYRVVSVLTVLHQDWLNGKEYKCKVSNKALPAPIEKTISKAKGQPREPQVYTLPPSRCELTKNQVSLSCAVKGFYPSDIAVEWESNGQPENNYKTTPPVLDSDGSFFLVSKLTVDKSRWQQGNVFSCSVMHEALHNHYTQKSLSLSPDYKDDDDK EPKSSDKTHTCPPCPAPELLGGPSVFLFPPKPKDTLMISRTPEVTCVVVDVSHEDPEVKFNWYVDGVEVHNAKTKPREEQYNSTYRVVSVLTVLHQDWLNGKEYKCKVSNKALPAPIEKTISKAKGQPREPQVCTLPPSRDELTKNQVSLWCLVKGFYPSDIAVEWESNGQPENNYKTTPPVLDSDGSFFLYSKLTVDKSRWQQGNVFSCSVMHEALHNRYTQKSLSLSP light: DIVMTQSPLSLPVTPGEPASISCRSSQSLVHSNRNTYLHWYQQKPGQAPRLLIYKVSNRFSGVPDRFSGSGSGTDFTLKISRVEAEDVGVYYCGQGTQVPYTFGQGTKLEIKRTVAAPSVFIFPPSDEQLKSGTASVVCLLNNFYPREAKVQWKVDNALQSGNSQESVTEQDSKDSTYSLSSTLTLSKADYEKHKVYACEVTHQGLSSPVTKSFNRGEC
5 | – | 0.0224 | H0610-G1dh/none-Hi-Kn010G3/TR01L020-k0 (antibody, human IgG1, kappa, single-arm (one Fab)) heavy: not shown EPKSSDKTHTCPPCPAPELLGGPSVFLFPPKPKDTLMISRTPEVTCVVVDVSHEDPEVKFNWYVDGVEVHNAKTKPREEQYNSTYRVVSVLTVLHQDWLNGKEYKCKVSNKALPAPIEKTISKAKGQPREPQVCTLPPSRDELTKNQVSLWCLVKGFYPSDIAVEWESNGQPENNYKTTPPVLDSDGSFFLYSKLTVDKSRWQQGNVFSCSVMHEALHNRYTQKSLSLSP light: DIVMTQSPLSLPVTPGEPASISCQASESPVHSNRNTYIQWYLQKPGQSPQLLIYKVSNRFSGVPDRFSGSGSGTDFTLKISRVEAEDVGVYYCYQGTQVPYTFGQGTKLEIKRTVAAPSVFIFPPSDEQLKSGTASVVCLLNNFYPREAKVQWKVDNALQSGNSQESVTEQDSKDSTYSLSSTLTLSKADYEKHKVYACEVTHQGLSSPVTKSFNRGEC
6 | – | 2.17 | H0610-G1dh/none-Hi-Kn010G3/TR01L018-k0 (antibody, human IgG1, kappa, single-arm (one Fab)) heavy: not shown EPKSSDKTHTCPPCPAPELLGGPSVFLFPPKPKDTLMISRTPEVTCVVVDVSHEDPEVKFNWYVDGVEVHNAKTKPREEQYNSTYRVVSVLTVLHQDWLNGKEYKCKVSNKALPAPIEKTISKAKGQPREPQVCTLPPSRDELTKNQVSLWCLVKGFYPSDIAVEWESNGQPENNYKTTPPVLDSDGSFFLYSKLTVDKSRWQQGNVFSCSVMHEALHNRYTQKSLSLSP light: DIVMTQSPLSLPVTPGEPASISCQASESPVHSNRNTYLHWYLQKPGQSPQLLIYKVSNRFSGVPDRFSGSGSGTDFTLKISRVEAEDVGVYYCGQGTQVPYTFGQGTKLEIKRTVAAPSVFIFPPSDEQLKSGTASVVCLLNNFYPREAKVQWKVDNALQSGNSQESVTEQDSKDSTYSLSSTLTLSKADYEKHKVYACEVTHQGLSSPVTKSFNRGEC
7 | 50.5 | – | CE115HA192-E22Hh//-Hi-Kn010G3/L0000-k0 (antibody, human IgG1, kappa, L234A L235A, N297A, single-arm) heavy: QVQLVESGGGVVQPGRSLRLSCAASGFTFSNAWMHWVRQAPGKGLEWVAQIKAKSNNYATYYAESVKGRFTISRDDSKNSLYLQMNSLKTEDTAVYYCRYVHYYAYYGVDAWGQGTTVTVSSASTKGPSVFPLAPSSKSTSGGTAALGCLVKDYFPEPVTVSWNSGALTSGVHTFPAVLQSSGLYSLSSVVTVPSSSLGTQTYICNVNHKPSNTKVDKKVEPKSCDKTHTCPPCPAPEAAGGPSVFLFPPKPKDTLMISRTPEVTCVVVDVSHEDPEVKFNWYVDGVEVHNAKTKPREEQYASTYRVVSVLTVLHQDWLNGKEYKCKVSNKALPAPIEKTISKAKGQPREPQVYTLPPSRCELTKNQVSLSCAVKGFYPSDIAVEWESNGQPENNYKTTPPVLDSDGSFFLVSKLTVDKSRWQQGNVFSCSVMHEALHNHYTQKSLSLSPDYKDDDDK EPKSSDKTHTCPPCPAPELLGGPSVFLFPPKPKDTLMISRTPEVTCVVVDVSHEDPEVKFNWYVDGVEVHNAKTKPREEQYNSTYRVVSVLTVLHQDWLNGKEYKCKVSNKALPAPIEKTISKAKGQPREPQVCTLPPSRDELTKNQVSLWCLVKGFYPSDIAVEWESNGQPENNYKTTPPVLDSDGSFFLYSKLTVDKSRWQQGNVFSCSVMHEALHNRYTQKSLSLSP light: DIVMTQSPLSLPVTPGEPASISCRSSQSLVHSNRNTYLHWYQQKPGQAPRLLIYKVSNRFSGVPDRFSGSGSGTDFTLKISRVEAEDVGVYYCGQGTQVPYTFGQGTKLEIKRTVAAPSVFIFPPSDEQLKSGTASVVCLLNNFYPREAKVQWKVDNALQSGNSQESVTEQDSKDSTYSLSSTLTLSKADYEKHKVYACEVTHQGLSSPVTKSFNRGEC
8 | 67.6 | – | CE115HA121-E22Hh//-Hi-Kn010G3/L0000-k0 (antibody, human IgG1, kappa, L234A L235A, N297A, single-arm) heavy: QVQLVESGGGVVQPGRSLRLSCAASGFTFSNAWMHWVRQAPGKGLEWVALIKAKSNNYATYYAESVKGRFTISRDDSKNSLYLQMNSLKTEDTAVYYCRYVHYGAYYGVDAWGQGTTVTVSSASTKGPSVFPLAPSSKSTSGGTAALGCLVKDYFPEPVTVSWNSGALTSGVHTFPAVLQSSGLYSLSSVVTVPSSSLGTQTYICNVNHKPSNTKVDKKVEPKSCDKTHTCPPCPAPEAAGGPSVFLFPPKPKDTLMISRTPEVTCVVVDVSHEDPEVKFNWYVDGVEVHNAKTKPREEQYASTYRVVSVLTVLHQDWLNGKEYKCKVSNKALPAPIEKTISKAKGQPREPQVYTLPPSRCELTKNQVSLSCAVKGFYPSDIAVEWESNGQPENNYKTTPPVLDSDGSFFLVSKLTVDKSRWQQGNVFSCSVMHEALHNHYTQKSLSLSPDYKDDDDK EPKSSDKTHTCPPCPAPELLGGPSVFLFPPKPKDTLMISRTPEVTCVVVDVSHEDPEVKFNWYVDGVEVHNAKTKPREEQYNSTYRVVSVLTVLHQDWLNGKEYKCKVSNKALPAPIEKTISKAKGQPREPQVCTLPPSRDELTKNQVSLWCLVKGFYPSDIAVEWESNGQPENNYKTTPPVLDSDGSFFLYSKLTVDKSRWQQGNVFSCSVMHEALHNRYTQKSLSLSP light: DIVMTQSPLSLPVTPGEPASISCRSSQSLVHSNRNTYLHWYQQKPGQAPRLLIYKVSNRFSGVPDRFSGSGSGTDFTLKISRVEAEDVGVYYCGQGTQVPYTFGQGTKLEIKRTVAAPSVFIFPPSDEQLKSGTASVVCLLNNFYPREAKVQWKVDNALQSGNSQESVTEQDSKDSTYSLSSTLTLSKADYEKHKVYACEVTHQGLSSPVTKSFNRGEC
